Positions of bridges follow the written chain, without caps; N, C: chain ends. Non-standard residues stand in square brackets, D forms with d. Groups on a side chain read outwards from the residue. No end group written: not given here. *: point of attachment. Docosanoyl = CCCCCCCCCCCCCCCCCCCCCC(=O)*; Phe(4-NH2) = Nc1ccc(C[C@H](N)C(=O)O)cc1; PhLac = O=C(O)[C@@H](O)Cc1ccccc1; Aib = CC(C)(N)C(=O)O; C20 = C20 acyl group; Sar = CNCC(=O)O
Tests used:
glucagon receptor [1] = molecular target: glucagon receptor (UniProt P47871); assay: cell-based or functional assay
Chain of glucagon receptor (UniProt P47871) (P47871 26-477 limits assumed): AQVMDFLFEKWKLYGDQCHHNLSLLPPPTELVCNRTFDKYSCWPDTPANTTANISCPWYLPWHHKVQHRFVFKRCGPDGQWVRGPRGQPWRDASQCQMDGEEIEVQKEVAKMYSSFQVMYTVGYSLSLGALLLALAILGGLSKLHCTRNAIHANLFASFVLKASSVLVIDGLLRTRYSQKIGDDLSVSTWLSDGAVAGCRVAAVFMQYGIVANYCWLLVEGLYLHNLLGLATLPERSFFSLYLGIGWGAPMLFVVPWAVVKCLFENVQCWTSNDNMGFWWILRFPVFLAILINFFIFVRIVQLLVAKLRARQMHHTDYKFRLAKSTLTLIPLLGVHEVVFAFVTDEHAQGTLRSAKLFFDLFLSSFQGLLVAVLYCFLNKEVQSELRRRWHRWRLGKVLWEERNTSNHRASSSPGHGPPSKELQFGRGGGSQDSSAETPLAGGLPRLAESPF

glucagon receptor [2] = molecular target: glucagon receptor (UniProt P47871); assay: cell-based or functional assay; remark: listed apart in the source
GLP-1 receptor [3] = molecular target: GLP-1 receptor (Homo sapiens, UniProt P43220); assay: GLP-receptor luciferase bioassay of samples incubated in 20% human plasma (restored activity); type: cell-based; details: 37° C., 0 to 5 d
Chain of GLP-1 receptor (Homo sapiens, UniProt P43220) (P43220 24-463): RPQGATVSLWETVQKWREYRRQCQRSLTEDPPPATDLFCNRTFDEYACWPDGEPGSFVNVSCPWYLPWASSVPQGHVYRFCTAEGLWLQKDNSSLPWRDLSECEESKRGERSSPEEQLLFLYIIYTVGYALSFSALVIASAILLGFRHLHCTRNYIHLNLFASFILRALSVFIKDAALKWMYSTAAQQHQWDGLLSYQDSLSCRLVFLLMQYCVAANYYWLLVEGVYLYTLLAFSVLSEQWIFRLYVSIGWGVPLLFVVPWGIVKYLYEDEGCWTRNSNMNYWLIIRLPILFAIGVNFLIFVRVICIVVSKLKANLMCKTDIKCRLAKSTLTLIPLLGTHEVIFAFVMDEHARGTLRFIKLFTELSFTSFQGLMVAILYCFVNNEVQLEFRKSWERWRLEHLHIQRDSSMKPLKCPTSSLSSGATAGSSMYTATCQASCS
Experimental: To explore the possible formation of DKP and simultaneous regeneration of the parent drug, the above-mentioned peptides were incubated in 20% human plasma at 37° C. for approximately 5 days. Samples were collected at different time points (0, 1, 2, and 5 days).

GLP-1 receptor [4] = molecular target: T1, GLP-1 receptor (UniProt P43220 24-463, limits assumed); assay: cell-based or functional assay
glucagon receptor [5] = molecular target: glucagon receptor (UniProt P47871 26-477, limits assumed); assay: cell-based or functional assay
Chain of glucagon receptor (UniProt P47871 26-477, limits assumed) (P47871 26-477 limits assumed): as the sequence (P47871 26-477 limits assumed) above

GLP-1 receptor [6] = molecular target: T1, GLP-1 receptor; assay: cell-based or functional assay; remark: listed apart in the source

In the case of “E9, K12, E16 glucagon(6-39) Cex peptide (Table 1 peptide 1)”, the Glu IC50 (glucagon receptor [1]) is reported as 762 nM and the Glucagon IC50 (glucagon receptor [2]) is reported as 762 nM.

“C22 attached directly to position 10 (non-prodrug): non-prodrug: C22-acylated lysine attached directly to the 4-amino group of phenylalanine at position 10 of Peptide D (F[Aib]EGTFTSD[Phe(4-NH2)]([Lys-Docosanoyl])SIYLDKQAA[Aib]EFVNWLLAGGPSSGAPPPS; not fully specified (C-terminus))” was tested, and the “Change of activity over the time points in plasma” value (GLP-1 receptor [3]) was “No change”.

“C20 attached directly to position 10 (non-prodrug): non-prodrug: C20-acylated lysine attached directly to the 4-amino group of phenylalanine at position 10 of Peptide D (F[Aib]EGTFTSD[Phe(4-NH2)]([Lys-C20])SIYLDKQAA[Aib]EFVNWLLAGGPSSGAPPPS; not fully specified (C-terminus))” was tested, and the “Change of activity over the time points in plasma” value (GLP-1 receptor [3]) was “No change”.

In the case of F[Aib]EGTFTSD[Phe(4-NH2)]([Lys-C20 acyl])SIYLDKQAA[Aib]EFVNWLLAGGPSSGAPPPS-NH2 (also: acylated amino group of the Lys not given here), the “Relative activity to GLP-1 standard, luciferase cAMP reporter assay, sample after 0 d in 20% human plasma at 37 C” value (GLP-1 receptor [4]) is reported as 3.4%, the “Relative activity to GLP-1 standard, luciferase cAMP reporter assay, sample after 1 d in 20% human plasma at 37 C” value (GLP-1 receptor [4]) is reported as 0.7% and the “Relative activity to GLP-1 standard, luciferase cAMP reporter assay, sample after 5 d in 20% human plasma at 37 C” value (GLP-1 receptor [4]) is reported as 0.2%.

With [PhLac]TSDYSKYLDERRAKDFVEWLMDT (lactam 15-19) [[PLA6, D9, E16, K20E24(Lactam), D28]G(6-29) (Table 2 peptide 3)] the “Glucagon IC50” value (glucagon receptor [5]) was 74 nM and the “GLP-1 EC50” value (GLP-1 receptor [6]) was 239 nM.

B1: [E9, E16K20(lactam), D28]G(4~29) (Table 2 peptide 5) (peptide)
peptide: GTFTSEYSKYLDERRAKDFVQWLMDT-NH2
modifications: lactam 13-17; N-terminus assumed
SMILES: CSCC[C@H](NC(=O)[C@H](CC(C)C)NC(=O)[C@H](Cc1c[nH]c2ccccc12)NC(=O)[C@H](CCC(N)=O)NC(=O)[C@@H](NC(=O)[C@H](Cc1ccccc1)NC(=O)[C@H](CC(=O)O)NC(=O)[C@@H]1CCCCNC(=O)CC[C@H](NC(=O)[C@H](CC(=O)O)NC(=O)[C@H](CC(C)C)NC(=O)[C@H](Cc2ccc(O)cc2)NC(=O)[C@H](CCCCN)NC(=O)[C@H](CO)NC(=O)[C@H](Cc2ccc(O)cc2)NC(=O)[C@H](CCC(=O)O)NC(=O)[C@H](CO)NC(=O)[C@@H](NC(=O)[C@H](Cc2ccccc2)NC(=O)[C@@H](NC(=O)CN)[C@@H](C)O)[C@@H](C)O)C(=O)N[C@@H](CCCNC(=N)N)C(=O)N[C@@H](CCCNC(=N)N)C(=O)N[C@@H](C)C(=O)N1)C(C)C)C(=O)N[C@@H](CC(=O)O)C(=O)N[C@H](C(N)=O)[C@@H](C)O
In the case of B1, the “Glucagon IC50” value (glucagon receptor [5]) is reported as 10 to 30 nM and the “GLP-1 EC50” value (GLP-1 receptor [6]) is reported as 151 nM.

B2: Peptide D (parent peptide, lacking acylation and lacking a dipeptide prodrug moiety) (peptide)
peptide: F[Aib]EGTFTSD[Phe(4-NH2)]SIYLDKQAA[Aib]EFVNWLLAGGPSSGAPPPS-NH2
modifications: N-terminus assumed
SMILES: CC[C@H](C)[C@H](NC(=O)[C@H](CO)NC(=O)[C@H](Cc1ccc(N)cc1)NC(=O)[C@H](CC(=O)O)NC(=O)[C@H](CO)NC(=O)[C@@H](NC(=O)[C@H](Cc1ccccc1)NC(=O)[C@@H](NC(=O)CNC(=O)[C@H](CCC(=O)O)NC(=O)C(C)(C)NC(=O)[C@@H](N)Cc1ccccc1)[C@@H](C)O)[C@@H](C)O)C(=O)N[C@@H](Cc1ccc(O)cc1)C(=O)N[C@@H](CC(C)C)C(=O)N[C@@H](CC(=O)O)C(=O)N[C@@H](CCCCN)C(=O)N[C@@H](CCC(N)=O)C(=O)N[C@@H](C)C(=O)N[C@@H](C)C(=O)NC(C)(C)C(=O)N[C@@H](CCC(=O)O)C(=O)N[C@@H](Cc1ccccc1)C(=O)N[C@H](C(=O)N[C@@H](CC(N)=O)C(=O)N[C@@H](Cc1c[nH]c2ccccc12)C(=O)N[C@@H](CC(C)C)C(=O)N[C@@H](CC(C)C)C(=O)N[C@@H](C)C(=O)NCC(=O)NCC(=O)N1CCC[C@H]1C(=O)N[C@@H](CO)C(=O)N[C@@H](CO)C(=O)NCC(=O)N[C@@H](C)C(=O)N1CCC[C@H]1C(=O)N1CCC[C@H]1C(=O)N1CCC[C@H]1C(=O)N[C@@H](CO)C(N)=O)C(C)C
B2 was tested, and the “Relative activity to GLP-1 standard, luciferase cAMP reporter assay, sample after 0 d in 20% human plasma at 37 C” value (GLP-1 receptor [4]) was 85.2%, the “Relative activity to GLP-1 standard, luciferase cAMP reporter assay, sample after 1 d in 20% human plasma at 37 C” value (GLP-1 receptor [4]) was 84.1% and the “Relative activity to GLP-1 standard, luciferase cAMP reporter assay, sample after 5 d in 20% human plasma at 37 C” value (GLP-1 receptor [4]) was 72.8%.

AEGTFTSEYSKYLDERRAKDFVQWLMDT (lactam 15-19) [[A2E3, E16K20(Lactam),D28]G(2~29) (Table 2 peptide 7)] was tested, and the “Glucagon IC50” value (glucagon receptor [5]) was 63 nM.

B3: [A2E3, E16K20(Lactam), D28]G(1~29) (Table 2 peptide 8) (peptide)
peptide: HAEGTFTSEYSKYLDERRAKDFVQWLMDT-NH2
modifications: lactam 16-20; N-terminus assumed
SMILES: CSCC[C@H](NC(=O)[C@H](CC(C)C)NC(=O)[C@H](Cc1c[nH]c2ccccc12)NC(=O)[C@H](CCC(N)=O)NC(=O)[C@@H](NC(=O)[C@H](Cc1ccccc1)NC(=O)[C@H](CC(=O)O)NC(=O)[C@@H]1CCCCNC(=O)CC[C@H](NC(=O)[C@H](CC(=O)O)NC(=O)[C@H](CC(C)C)NC(=O)[C@H](Cc2ccc(O)cc2)NC(=O)[C@H](CCCCN)NC(=O)[C@H](CO)NC(=O)[C@H](Cc2ccc(O)cc2)NC(=O)[C@H](CCC(=O)O)NC(=O)[C@H](CO)NC(=O)[C@@H](NC(=O)[C@H](Cc2ccccc2)NC(=O)[C@@H](NC(=O)CNC(=O)[C@H](CCC(=O)O)NC(=O)[C@H](C)NC(=O)[C@@H](N)Cc2c[nH]cn2)[C@@H](C)O)[C@@H](C)O)C(=O)N[C@@H](CCCNC(=N)N)C(=O)N[C@@H](CCCNC(=N)N)C(=O)N[C@@H](C)C(=O)N1)C(C)C)C(=O)N[C@@H](CC(=O)O)C(=O)N[C@H](C(N)=O)[C@@H](C)O
With B3 the “Glucagon IC50 (nM); PA = partial antagonist” value (glucagon receptor [5]) was 130 nM and the “GLP-1 EC50” value (GLP-1 receptor [6]) was 0.2 nM.

F[Aib]EGTFTSD[Phe(4-NH2)]([Lys-C22 acyl])SIYLDKQAA[Aib]EFVNWLLAGGPSSGAPPPS-NH2 (also: acylated amino group of the Lys not given here) was tested, and the “Relative activity to GLP-1 standard, luciferase cAMP reporter assay, sample after 0 d in 20% human plasma at 37 C” value (GLP-1 receptor [4]) was 1.8%, the “Relative activity to GLP-1 standard, luciferase cAMP reporter assay, sample after 1 d in 20% human plasma at 37 C” value (GLP-1 receptor [4]) was 2.1% and the “Relative activity to GLP-1 standard, luciferase cAMP reporter assay, sample after 5 d in 20% human plasma at 37 C” value (GLP-1 receptor [4]) was 0.4%.

[PhLac]TSDYSKYLDERRAQDFVEWLMKT (lactam 19-23) [[PLA6, D9, E16, E24K28(lactam)]G(6~29) (Table 2 peptide 4)] was tested, and the “Glucagon IC50” value (glucagon receptor [5]) was 22 nM and the “GLP-1 EC50” value (GLP-1 receptor [6]) was 289 nM.

With HSQGTFTSDYARYLDARRAREFIKWLVRGRG [ANK2 (Bayer peptide) (Table 2 peptide 9)] the “GLP-1 EC50” value (GLP-1 receptor [6]) was 0.28 nM.

F[Aib]EGTFTSD[Phe(4-NH2)]([Sar-dK-C22 acyl])SIYLDKQAA[Aib]EFVNWLLAGGPSSGAPPPS-NH2 [Peptide D with C22 acylated (d)Lysine-sarcosine dipeptide prodrug moiety at position 10] was tested, and the “Relative activity to GLP-1 standard, luciferase cAMP reporter assay, sample after 0 d in 20% human plasma at 37 C” value (GLP-1 receptor [4]) was 30.9%, the “Relative activity to GLP-1 standard, luciferase cAMP reporter assay, sample after 1 d in 20% human plasma at 37 C” value (GLP-1 receptor [4]) was 48.2% and the “Relative activity to GLP-1 standard, luciferase cAMP reporter assay, sample after 5 d in 20% human plasma at 37 C” value (GLP-1 receptor [4]) was 63.2%. The “Restored (percent, 0 d; not defined in the filing, matches the ratio to the parent peptide at the same time)” value (GLP-1 receptor [4]) was 36%, the “Restored (percent, 1 d; not defined in the filing, matches the ratio to the parent peptide at the same time)” value (GLP-1 receptor [4]) was 57% and the “Restored (percent, 5 d; not defined in the filing, matches the ratio to the parent peptide at the same time)” value (GLP-1 receptor [4]) was 87%.

With F[Aib]EGTFTSD[Phe(4-NH2)]([Sar-dK-C20 acyl])SIYLDKQAA[Aib]EFVNWLLAGGPSSGAPPPS-NH2 [Peptide D with C20 acylated (d)Lysine-sarcosine dipeptide prodrug moiety at position 10] the “Relative activity to GLP-1 standard, luciferase cAMP reporter assay, sample after 0 d in 20% human plasma at 37 C” value (GLP-1 receptor [4]) was 30.9%, the “Relative activity to GLP-1 standard, luciferase cAMP reporter assay, sample after 1 d in 20% human plasma at 37 C” value (GLP-1 receptor [4]) was 37.8% and the “Relative activity to GLP-1 standard, luciferase cAMP reporter assay, sample after 5 d in 20% human plasma at 37 C” value (GLP-1 receptor [4]) was 96.9%. The “Restored (percent, 0 d; not defined in the filing, matches the ratio to the parent peptide at the same time)” value (GLP-1 receptor [4]) was 36%, the “Restored (percent, 1 d; not defined in the filing, matches the ratio to the parent peptide at the same time)” value (GLP-1 receptor [4]) was 45% and the “Restored (percent, 5 d; not defined in the filing, matches the ratio to the parent peptide at the same time)” value (GLP-1 receptor [4]) was 133%.
